Reference: the supplement of paper PMC9170038

Tested on: MS2 coat protein
Experiment: apparent KD of MS2 coat protein; higher = weaker reporter binding
Details: Eterna round: R107
How it was run: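 Each design's apparent KD comes from the median of binding-curve fits to its normalised clusters. Those clusters carried RNA switches transcribed on-chip from Illumina sequencing clusters. SNAP-549-labelled MS2 coat protein was titrated onto them in twofold steps (0.7 or 1.5 nM to 3 µM; per step 0.8–1.5 h down to 10–20 min). Conditions were 100 mM Tris-HCl pH 7.5, 80 mM KCl, 4 mM MgCl2, without or with constant ligand.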

[1] = input ligand: theophylline 20 uM
[2] = input ligand: theophylline 2 mM
[3] = input ligand: tryptophan 2.4 mM

Row | Sequence | apparent KD of MS2 coat protein (input ligand: arginine 13.2 mM) [µM] | apparent KD of MS2 coat protein (input ligand: none) [µM] | apparent KD of MS2 coat protein [1] [µM] | apparent KD of MS2 coat protein [2] [µM] | apparent KD of MS2 coat protein [3] [µM]
1 | CAGGCCUUGCCCGGUGUUCCGAAAGUGGAAGGAGCGCACAUUGGUGCAGGUAGGUCGCCACAUGAGGAUCACCCAUGUCUAGGCC [Aveatti] | 0.0549 | 0.02 | 0.111 | 0.0225 | 0.0502
2 | CGGUUUGUGAUGGAUACCAGCAGAGAAAAUGUUUAUCCUAACAUGAGGAUCACCCAUGUGUGCCCUUGGCAGCUGUUGUGGGCUG [8.W] | 0.046 |  | 0.0726 |  | 0.0497
3 | AUACAUGAGGAUCACCCAUGUUACACUGAAGGAGCGACAUGUUUGUCAGGUAGGUCGCAGUGAAGUUUAAUAAAUAGUUGAUCUU [#07 Same State - Arginine A] | 0.0376 | 0.057 | 0.0568 | 0.0626 | 0.037
4 | UUUGGCGGCGAUCUGGGUUUACCAGAUCGGCGAGGACCGGUACGGCCGCCACUCGUGUUUCUUUGACAUGAGGAUCACCCAUGUA [whbob_SS_trypto A_f3] | 0.0349 |  | 0.0746 | 0.102 | 
5 | UCACAUGAGGAUCACCCAUGUCAUGUUGAAGGAGCGACCAGGAGGUCAGGUAGGUCGCAACACAUGAGGAUCACCCAUGUGGCCC [Qetesh] | 0.0875 | 0.172 | 0.119 | 0.159 | 0.149
6 | AUACAUGAGGAUCACCCAUGUCAUUCAGAAGGAGCGUCAUUUUAGACAGGUAGGUCGCUGAUAUUAUCUUUAUACUUUAUGUUUA [JR_ExcArginiA_Sub023] | 0.0191 | 0.0183 | 0.0273 | 0.0182 | 0.0199
7 | UGUAUGUGAUCUGAUACCAGCUAAUAAGCUUGAGGAUCACCCAAGUGGAGCGGAAACGCAGGCCCUUGGCAGCAGAUCGCAUACU [Denovo 9 #StaticStem #AlternativeMS2] | 0.0546 | 0.0764 | 0.0344 | 0.0117 | 0.0707
8 | UGUCAUGGAAACAUGACUGGUUCUACCGGUCGAGGACCGGUACGGCCGCCACUCGGUUGGUGGCACAUGAGGAUCACCCAUGUUA [SS Tryp A #13] | 0.0285 | 0.0303 | 0.0518 | 0.0447 | 0.0297
9 | GGGUAAGAUCCGGAUACCAGCGAACAUGAGGAUCACCCAUGUGAAAUAAGAUAGAAUAAACGCCCUUGGCAGCCGAAAUAGAGUU [Same State Theophylline B GF 3] | 0.0413 |  | 0.0819 |  | 0.0889
10 | GUGCCGCAUUCACAUGAGGAUCACCCAUGUCGAGGACCGGUACGGCCGCCACUCGACGUGCUUACAGGUCCUUUAAGGCCCAAUA [Usislaan] | 0.079 |  | 0.2 | 0.221 | 
11 | UAAGCGCGAGGAGACGGAACCAAUCUUGUUCGAGGACCGGUACGGCCGCCACUCGGCGUAAAACAUGAGGAUCACCCAUGUGCAA [theeternabot_exclusion_MS2_Trp_A_18] | 0.0108 | 0.0132 | 0.0156 | 0.0161 | 0.0164
12 | UGGCAAGAGGGAAGGAGCGUCAGCUGAGUCACAUGAGGAUCACCCAUGUAGCACAUAGUGUGACAGGUAGGUCGCCCUCUGCCGU [SS-ArgB10] | 0.00672 | 0.00882 | 0.0101 | 0.0103 | 0.00962
13 | ACUCGGUGUUUGUUGCUCCGAGUACGUGAUACCAGUUAAUUUUAUGGCCCUUGGCAGCAUGGGACAUGAGGAUCACCCAUGUUUA [#04 SameState-TheophyllineA] | 0.125 |  | 0.344 |  | 0.318
14 | AACUGGAUCAGUGAUACCAGAGACAUGAGGAUCACCCAUGUACAUGAGGAUCACCCAUGUCUCCCUUGGCAGCACAGCAGGGAGC [Exclusion Theophylline B GF 17] | 0.0328 | 0.07 | 0.0703 | 0.442 | 0.0641
15 | UAUUAUCAGUCGGCCGCCACUGACACAUGAGGAUCACCCAUGUAAUUUGGGUUAUAUAUAAAUUACAGGACCGGGACAAAUGCUA [JR_Nu13_ExcTryptoB_Sub025] | 0.161 |  | 0.366 | 0.368 | 
16 | ACUAGCGCACAUGAUACCAGCGACAUGAGGAUCACCCAUGUACGGCGUGUAUCGAAAGGUUGCCCUUGGCAGCAUGAUAGCGCUG [Cebiri] | 0.0126 |  | 0.0261 |  | 0.0145
17 | UGGUCCGUCGGAAGGAGCGACAUGAGGAUCACCCAUGUCUCCCGUUAUGGGAGUUCUUUAGGUCAGGUAGGUCGCCGGCGGGUCA [#1 Exclusion - Arginine B Attempt #12 (Inspired by Omei)] | 0.0916 | 0.111 | 0.209 | 0.22 | 0.144
18 | AACAUGAGGAUCACCCAUGUAAUAUGGGAUACCAGAGACGAAAGUCUCCCUUGGCAGCCCAAGCUGCUCCAUACGAAAGUAUGGU [Theophylline A 16] | 0.0505 |  | 0.0437 |  | 0.0647
19 | AUUGUGAACCUGAUCGUAUAAUGUAGCGAUACCAGUAUAAUACAUUACCCUUGGCAGCGCGACACAUGAGGAUCACCCAUGUAAG [theeternabot_exclusion_MS2_Theo_A_10] | 0.0196 |  | 0.0269 |  | 0.023
20 | AGUUUAGACACGGCCGCCACUCGUGACAGAUUUCGCAGUGGUCAACAUGAGGAUCACCCAUGUCUGAGGACCGGGUGUUGAGUUU [XTryp B #7] | 0.0452 |  | 0.0487 | 0.0534 | 
